The values that follow are results of earlier work, collected in PMC3869910.

One may read the Kd as the free concentration of one partner at which half of the binding sites on the other are occupied at equilibrium, for simple one-to-one binding.

This series has as its target alpha-bungarotoxin (Bungarus multicinctus) (UniProt P60615).
UniProt P60615, sequence (P60615 22-95): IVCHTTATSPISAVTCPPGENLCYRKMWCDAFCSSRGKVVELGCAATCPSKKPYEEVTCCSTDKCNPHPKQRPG

On to “nicotinic acetylcholine receptor alpha1 (y-α1-ECD) ECD (from UniProt P02708)”, for which the Kd is 5 nM.
